Experimental data published in article PMC9256704.

Biological target: PKM2 (M2 isoform of pyruvate kinase), endogenous (human (endogenous in A549 and in patients' lung cancer tissues)) (UniProt P14618)
Assay: native gel or EMSA; native PAGE of cytoplasm and nucleus of cells; TRIB2 overexpression or siRNA-TRIB2

Sequence of PKM2 (M2 isoform of pyruvate kinase), endogenous, P14618 1-531 (natural protein; other documents disagree on this pair) (P14618 whole entry, canonical isoform): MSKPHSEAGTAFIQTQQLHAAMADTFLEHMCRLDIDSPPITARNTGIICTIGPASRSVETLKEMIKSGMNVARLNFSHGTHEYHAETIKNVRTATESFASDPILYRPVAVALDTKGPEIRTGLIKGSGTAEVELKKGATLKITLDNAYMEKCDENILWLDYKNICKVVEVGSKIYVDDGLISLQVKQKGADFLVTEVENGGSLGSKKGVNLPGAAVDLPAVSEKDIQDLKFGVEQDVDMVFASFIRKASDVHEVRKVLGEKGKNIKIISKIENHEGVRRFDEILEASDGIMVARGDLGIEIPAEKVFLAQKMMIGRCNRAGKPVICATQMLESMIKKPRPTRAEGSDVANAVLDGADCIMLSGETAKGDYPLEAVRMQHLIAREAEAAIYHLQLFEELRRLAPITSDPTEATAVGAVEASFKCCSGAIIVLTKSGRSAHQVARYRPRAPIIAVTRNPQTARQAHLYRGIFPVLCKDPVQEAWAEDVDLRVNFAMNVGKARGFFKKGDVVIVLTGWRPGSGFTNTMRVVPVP

For “PKM2 (M2 isoform of pyruvate kinase), endogenous, P14618 1-531 (natural protein; other documents disagree on this pair)”, the stoichiometry N was 2.
